Test results: paper PMC6065357 (2018)

Molecular target: T1, pro-brain-derived neurotrophic factor (proBDNF, residues 19-249, furin sites changed to AA) (UniProt P21237 19-249)
T1 chain: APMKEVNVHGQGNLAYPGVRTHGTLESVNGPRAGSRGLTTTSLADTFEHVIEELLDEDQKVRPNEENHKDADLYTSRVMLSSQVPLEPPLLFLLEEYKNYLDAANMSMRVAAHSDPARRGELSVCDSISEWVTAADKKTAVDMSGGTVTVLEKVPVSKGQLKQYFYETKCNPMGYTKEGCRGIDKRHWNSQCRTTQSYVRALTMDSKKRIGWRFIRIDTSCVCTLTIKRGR
Assay: SPR; second site of two-site fit, possibly sSorCS2 oligomerization

B1: mouse SorCS2 mature extracellular segment (sSorCS2, residues 117-1072) (receptor)
chain: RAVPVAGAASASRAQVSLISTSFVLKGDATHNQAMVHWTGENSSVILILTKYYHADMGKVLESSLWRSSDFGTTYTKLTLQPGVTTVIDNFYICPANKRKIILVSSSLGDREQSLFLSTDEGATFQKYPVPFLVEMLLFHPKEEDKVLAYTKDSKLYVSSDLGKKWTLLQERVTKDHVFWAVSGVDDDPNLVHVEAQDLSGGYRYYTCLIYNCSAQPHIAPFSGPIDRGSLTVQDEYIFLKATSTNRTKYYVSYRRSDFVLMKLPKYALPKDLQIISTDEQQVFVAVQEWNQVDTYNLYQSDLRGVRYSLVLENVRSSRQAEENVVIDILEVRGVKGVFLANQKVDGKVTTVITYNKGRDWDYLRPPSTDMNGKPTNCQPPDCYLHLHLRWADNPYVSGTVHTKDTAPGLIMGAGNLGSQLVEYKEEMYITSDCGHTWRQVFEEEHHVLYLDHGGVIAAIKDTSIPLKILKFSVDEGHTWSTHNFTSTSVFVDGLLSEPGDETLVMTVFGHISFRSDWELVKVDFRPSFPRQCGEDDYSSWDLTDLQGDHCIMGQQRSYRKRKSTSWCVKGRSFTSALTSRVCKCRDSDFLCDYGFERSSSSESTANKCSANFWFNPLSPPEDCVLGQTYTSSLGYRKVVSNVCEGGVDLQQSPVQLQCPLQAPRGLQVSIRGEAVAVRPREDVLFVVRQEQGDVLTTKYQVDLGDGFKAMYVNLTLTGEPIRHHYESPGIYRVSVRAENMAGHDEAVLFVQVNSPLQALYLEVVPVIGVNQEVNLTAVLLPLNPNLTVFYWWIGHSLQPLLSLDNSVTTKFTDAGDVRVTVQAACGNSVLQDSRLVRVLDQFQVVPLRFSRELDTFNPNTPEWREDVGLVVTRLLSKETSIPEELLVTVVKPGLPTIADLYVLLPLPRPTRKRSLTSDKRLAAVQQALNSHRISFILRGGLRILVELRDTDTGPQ
B1 showed a Kd of ~30 µM.
